Source: the supplement of paper PMC12855868

B1: library; numbered along this chain (parent)
chain: MAAAGGARLLRAASAVLGGPAGRWLHHAGSRAGSSGLLRNRGPGGSAEASRSLSVSARARSSSEDKITVHFINRDGETLTTKGKVGDSLLDVVVENNLDIDGFGACEGTLACSTCHLIFEDHIYEKLDAITDEENDMLDLAYGLTDRSRLGCQICLTKSMDNMTVRVPETVADARQSIDVGKTS

Variants of: B1
Experiment: scaled log2 fold change in cell abundance, elesclomol vs control (0 = silent mean, 1 = nonsense mean) (scaled log2 ratio); higher = higher viability under elesclomol (loss of FDX1 cuproptosis function)
Conditions: glucose 10 mM
[1] = with ABC1 FDX1 KO, elesclomol 5 nM, 14 days
[2] = with HEK293T FDX1 KO, elesclomol 40 nM, 11 days
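Further: variant abundance is its share of total variant reads in each endpoint sample, from next-generation sequencing of the integrated ORF PCR-amplified out of genomic DNA.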

| Variant | scaled log2 fold change [1] | scaled log2 fold change [2] |
| --- | --- | --- |
| MAAAGGARLLRAASAVLGGPAGRWLHHAGSRAGSSGLLRNRGPGGSAEASRSLSVSARARSSSEDKITVHFINRDGETLTTKGKVGDSLLDVVVENNLDIDGFGACEGTLACSTCHLIFEDHIYEKLDAITDEENDMLDLAYGLTDRSRLGCQICLTKSMDNMTVRVPETVADARQSIDGGKTS [V180G] | 0.144 | -0.341 |
| MAAAGGARLLRAASAVLGGPAGRWLHHAGSRAGSSGLLRNRGPGGSAEASRSLSVSARARSSSEDKITVHFINRDGETLTTKGKVGDSLLDVVVENNLDIDGFGACEGTLACSTCHLIFEDHIYEKLDAITDEENDMLDLAYGLTDRSRLGCQICLTKSMDNMTVRVPETVADARQSIDMGKTS [V180M] | 0.313 | 0.491 |
| MAAAGGARLLRAASAVLGGPAGRWLHHAGSRAGSSGLLRNRGPGGSAEASRSLSVSARARSSSEDKITVHFINRDGETLTTKGKVGDSLLDVVVENNLDIDGFGACEGTLACSTCHLIFEDHIYEKLDAITDEENDMLDLAYGLTDRSRLGCQICLTKSMDNMTVRVPETVADARQSIDLGKTS [V180L] | -0.0572 | -0.104 |
| MAAAGGARLLRAASAVLGGPAGRWLHHAGSRAGSSGLLRNRGPGGSAEASRSLSVSARARSSSEDKITVHFINRDGETLTTKGKVGDSLLDVVVENNLDIDGFGACEGTLACSTCHLIFEDHIYEKLDAITDEENDMLDLAYGLTDRSRLGCQICLTKSMDNMTVRVPETVADARQSIDIGKTS [V180I] | 0.213 | – |
| MAAAGGARLLRAASAVLGGPAGRWLHHAGSRAGSSGLLRNRGPGGSAEASRSLSVSARARSSSEDKITVHFINRDGETLTTKGKVGDSLLDVVVENNLDIDGFGACEGTLACSTCHLIFEDHIYEKLDAITDEENDMLDLAYGLTDRSRLGCQICLTKSMDNMTVRVPETVADARQSIDPGKTS [V180P] | -1.19 | 0.824 |
| MAAAGGARLLRAASAVLGGPAGRWLHHAGSRAGSSGLLRNRGPGGSAEASRSLSVSARARSSSEDKITVHFINRDGETLTTKGKVGDSLLDVVVENNLDIDGFGACEGTLACSTCHLIFEDHIYEKLDAITDEENDMLDLAYGLTDRSRLGCQICLTKSMDNMTVRVPETVADARQSIDQGKTS [V180Q] | 0.0492 | -0.00162 |
| MAAAGGARLLRAASAVLGGPAGRWLHHAGSRAGSSGLLRNRGPGGSAEASRSLSVSARARSSSEDKITVHFINRDGETLTTKGKVGDSLLDVVVENNLDIDGFGACEGTLACSTCHLIFEDHIYEKLDAITDEENDMLDLAYGLTDRSRLGCQICLTKSMDNMTVRVPETVADARQSIDNGKTS [V180N] | 0.00503 | -0.0838 |
| MAAAGGARLLRAASAVLGGPAGRWLHHAGSRAGSSGLLRNRGPGGSAEASRSLSVSARARSSSEDKITVHFINRDGETLTTKGKVGDSLLDVVVENNLDIDGFGACEGTLACSTCHLIFEDHIYEKLDAITDEENDMLDLAYGLTDRSRLGCQICLTKSMDNMTVRVPETVADARQSIDWGKTS [V180W] | -0.111 | 0.322 |
| MAAAGGARLLRAASAVLGGPAGRWLHHAGSRAGSSGLLRNRGPGGSAEASRSLSVSARARSSSEDKITVHFINRDGETLTTKGKVGDSLLDVVVENNLDIDGFGACEGTLACSTCHLIFEDHIYEKLDAITDEENDMLDLAYGLTDRSRLGCQICLTKSMDNMTVRVPETVADARQSIDTGKTS [V180T] | 0.143 | -0.33 |
| MAAAGGARLLRAASAVLGGPAGRWLHHAGSRAGSSGLLRNRGPGGSAEASRSLSVSARARSSSEDKITVHFINRDGETLTTKGKVGDSLLDVVVENNLDIDGFGACEGTLACSTCHLIFEDHIYEKLDAITDEENDMLDLAYGLTDRSRLGCQICLTKSMDNMTVRVPETVADARQSIDYGKTS [V180Y] | -0.084 | 0.873 |
| MAAAGGARLLRAASAVLGGPAGRWLHHAGSRAGSSGLLRNRGPGGSAEASRSLSVSARARSSSEDKITVHFINRDGETLTTKGKVGDSLLDVVVENNLDIDGFGACEGTLACSTCHLIFEDHIYEKLDAITDEENDMLDLAYGLTDRSRLGCQICLTKSMDNMTVRVPETVADARQSIDSGKTS [V180S] | -0.754 | -1.45 |
| MAAAGGARLLRAASAVLGGPAGRWLHHAGSRAGSSGLLRNRGPGGSAEASRSLSVSARARSSSEDKITVHFINRDGETLTTKGKVGDSLLDVVVENNLDIDGFGACEGTLACSTCHLIFEDHIYEKLDAITDEENDMLDLAYGLTDRSRLGCQICLTKSMDNMTVRVPETVADARQSIDRGKTS [V180R] | -0.02 | -0.285 |
| MAAAGGARLLRAASAVLGGPAGRWLHHAGSRAGSSGLLRNRGPGGSAEASRSLSVSARARSSSEDKITVHFINRDGETLTTKGKVGDSLLDVVVENNLDIDGFGACEGTLACSTCHLIFEDHIYEKLDAITDEENDMLDLAYGLTDRSRLGCQICLTKSMDNMTVRVPETVADARQSIDKGKTS [V180K] | -0.341 | 0.164 |
| MAAAGGARLLRAASAVLGGPAGRWLHHAGSRAGSSGLLRNRGPGGSAEASRSLSVSARARSSSEDKITVHFINRDGETLTTKGKVGDSLLDVVVENNLDIDGFGACEGTLACSTCHLIFEDHIYEKLDAITDEENDMLDLAYGLTDRSRLGCQICLTKSMDNMTVRVPETVADARQSIDHGKTS [V180H] | -0.37 | 1.19 |
| MAAAGGARLLRAASAVLGGPAGRWLHHAGSRAGSSGLLRNRGPGGSAEASRSLSVSARARSSSEDKITVHFINRDGETLTTKGKVGDSLLDVVVENNLDIDGFGACEGTLACSTCHLIFEDHIYEKLDAITDEENDMLDLAYGLTDRSRLGCQICLTKSMDNMTVRVPETVADARQSIDVCKTS [G181C] | -0.0449 | -0.501 |
| MAAAGGARLLRAASAVLGGPAGRWLHHAGSRAGSSGLLRNRGPGGSAEASRSLSVSARARSSSEDKITVHFINRDGETLTTKGKVGDSLLDVVVENNLDIDGFGACEGTLACSTCHLIFEDHIYEKLDAITDEENDMLDLAYGLTDRSRLGCQICLTKSMDNMTVRVPETVADARQSIDVDKTS [G181D] | 0.217 | -0.438 |
| MAAAGGARLLRAASAVLGGPAGRWLHHAGSRAGSSGLLRNRGPGGSAEASRSLSVSARARSSSEDKITVHFINRDGETLTTKGKVGDSLLDVVVENNLDIDGFGACEGTLACSTCHLIFEDHIYEKLDAITDEENDMLDLAYGLTDRSRLGCQICLTKSMDNMTVRVPETVADARQSIDVAKTS [G181A] | -0.623 | -0.352 |
